Data taken from patent publication US20230159662A1 (Kyowa Kirin, published 2023).
Residue numbers refer to the chain shown, from its start. Names and notes keep the numbering of the source.

B1: human IgG1 anti-human CCR4 antibody (KM2160), S298A/E333A/K334A (AAA)/A339T (antibody)
heavy: EVQLVESGGDLMKPGGSLKISCAASGFIFSNYGMSWVRQTPDMRLEWVATISSASTYSYYPDSVKGRFTISRDNAENSLYLQMNSLRSEDTGIYYCGRHSDGNFAFGYWGRGTLVTVSAASTKGPSVFPLAPSSKSTSGGTAALGCLVKDYFPEPVTVSWNSGALTSGVHTFPAVLQSSGLYSLSSVVTVPSSSLGTQTYICNVNHKPSNTKVDKKVEPKSCDKTHTCPPCPAPELLGGPSVFLFPPKPKDTLMISRTPEVTCVVVDVSHEDPEVKFNWYVDGVEVHNAKTKPREEQYNATYRVVSVLTVLHQDWLNGKEYKCKVSNKALPAPIAATISKTKGQPREPQVYTLPPSRDELTKNQVSLTCLVKGFYPSDIAVEWESNGQPENNYKTTPPVLDSDGSFFLYSKLTVDKSRWQQGNVFSCSVMHEALHNHYTQKSLSLSPGK
light: DVLMTQTPLSLPVSLGDQASISCRSSRNIVHINGDTYLEWYLQRPGQSPKLLIYKVSNRFSGVPDRFSGSGSGTDFTLKISRVEAEDLGVYYCFQGSLLPWTFGGGTRLEIRRTVAAPSVFIFPPSDEQLKSGTASVVCLLNNFYPREAKVQWKVDNALQSGNSQESVTEQDSKDSTYSLSSTLTLSKADYEKHKVYACEVTHQGLSSPVTKSFNRGEC
B2: human IgG1 anti-human CCR4 antibody (KM2160), S298A/E333A/K334A (AAA)/G236S (antibody)
heavy: B1 heavy with G238S, T341A
light: B1 light
B3: human IgG1 anti-human CCR4 antibody (KM2160), S298A/E333A/K334A (AAA)/Q295T (antibody)
heavy: B1 heavy with Q297T, T341A
light: B1 light
B4: human IgG1 anti-human CCR4 antibody (KM2160), S298A/E333A/K334A (AAA)/S239D (antibody)
heavy: B1 heavy with S241D, T341A
light: B1 light
B5: human IgG1 anti-human CCR4 antibody (KM2160), S239E (antibody)
heavy: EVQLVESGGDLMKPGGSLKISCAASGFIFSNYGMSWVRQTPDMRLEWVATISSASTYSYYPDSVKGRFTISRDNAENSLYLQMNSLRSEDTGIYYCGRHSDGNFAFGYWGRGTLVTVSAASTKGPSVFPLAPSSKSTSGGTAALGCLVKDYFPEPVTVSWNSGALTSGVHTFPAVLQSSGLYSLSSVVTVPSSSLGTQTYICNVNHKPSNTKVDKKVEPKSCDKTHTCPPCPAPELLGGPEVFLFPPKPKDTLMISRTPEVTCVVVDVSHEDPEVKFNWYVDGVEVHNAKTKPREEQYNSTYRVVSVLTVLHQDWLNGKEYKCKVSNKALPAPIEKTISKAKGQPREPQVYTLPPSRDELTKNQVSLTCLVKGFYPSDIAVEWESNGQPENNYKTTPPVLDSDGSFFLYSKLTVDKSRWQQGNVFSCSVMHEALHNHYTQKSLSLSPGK
light: B1 light
B6: human IgG1 anti-human CCR4 antibody (KM2160), S298A/E333A/K334A (AAA)/D265G (antibody)
heavy: B1 heavy with D267G, T341A
light: B1 light
B7: human IgG1 anti-human CCR4 antibody (KM2160), S298A/E333A/K334A (AAA)/L235T (antibody)
heavy: B1 heavy with L237T, T341A
light: B1 light
B8: human IgG1 anti-human CCR4 antibody (KM2160), S298A/E333A/K334A (AAA)/E283L (antibody)
heavy: B1 heavy with E285L, T341A
light: B1 light
B9: human IgG1 anti-human CCR4 antibody (KM2160), S298A/E333A/K334A (AAA)/F243L (antibody)
heavy: B1 heavy with F245L, T341A
light: B1 light
B10: human IgG1 anti-human CCR4 antibody (KM2160), S298A/E333A/K334A (AAA)/S239D/I332E (antibody)
heavy: B1 heavy with S241D, I334E, T341A
light: B1 light
B11: human IgG1 anti-human CCR4 antibody (KM2160), S298A/E333A/K334A (AAA)/K248M (antibody)
heavy: B1 heavy with K250M, T341A
light: B1 light
B12: human IgG1 anti-human CCR4 antibody (KM2160), S298A/E333A/K334A (AAA)/E258H (antibody)
heavy: B1 heavy with E260H, T341A
light: B1 light
B13: human IgG1 anti-human CCR4 antibody (KM2160), S298A/E333A/K334A (AAA)/F372Y (antibody)
heavy: B1 heavy with T341A, F374Y
light: B1 light
B14: human IgG1 anti-human CCR4 antibody (KM2160), S298A/E333A/K334A (AAA)/E294W (antibody)
heavy: B1 heavy with E296W, T341A
light: B1 light
B15: human IgG1 anti-human CCR4 antibody (KM2160), printed as S298A/E333A/K334A, CH of SEQ ID NO 120 (antibody)
heavy: B1 heavy with A300T, T341A
light: B1 light
B16: human IgG1 anti-human CCR4 antibody (KM2160), S239D (antibody)
heavy: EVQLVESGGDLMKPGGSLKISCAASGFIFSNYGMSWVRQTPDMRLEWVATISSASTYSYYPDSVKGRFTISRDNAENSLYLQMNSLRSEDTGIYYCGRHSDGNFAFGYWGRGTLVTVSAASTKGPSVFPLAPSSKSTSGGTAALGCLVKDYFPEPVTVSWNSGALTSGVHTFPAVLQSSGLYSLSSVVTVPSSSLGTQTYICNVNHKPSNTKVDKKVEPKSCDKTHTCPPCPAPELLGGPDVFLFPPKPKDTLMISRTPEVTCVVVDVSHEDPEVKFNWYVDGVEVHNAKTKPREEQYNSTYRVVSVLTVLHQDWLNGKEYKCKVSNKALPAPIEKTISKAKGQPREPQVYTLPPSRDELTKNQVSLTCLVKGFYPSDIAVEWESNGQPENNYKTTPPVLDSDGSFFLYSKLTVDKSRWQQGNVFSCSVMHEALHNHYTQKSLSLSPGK
light: B1 light
B17: human IgG1 anti-human CCR4 antibody (KM2160), S298A/E333A/K334A (AAA)/V379M (antibody)
heavy: B1 heavy with T341A, V381M
light: B1 light
B18: human IgG1 anti-human CCR4 antibody (KM2160), S298A/E333A/K334A (AAA)/A327D (antibody)
heavy: B1 heavy with A329D, T341A
light: B1 light
B19: human IgG1 anti-human CCR4 antibody (KM2160), S239D/I332W (antibody)
heavy: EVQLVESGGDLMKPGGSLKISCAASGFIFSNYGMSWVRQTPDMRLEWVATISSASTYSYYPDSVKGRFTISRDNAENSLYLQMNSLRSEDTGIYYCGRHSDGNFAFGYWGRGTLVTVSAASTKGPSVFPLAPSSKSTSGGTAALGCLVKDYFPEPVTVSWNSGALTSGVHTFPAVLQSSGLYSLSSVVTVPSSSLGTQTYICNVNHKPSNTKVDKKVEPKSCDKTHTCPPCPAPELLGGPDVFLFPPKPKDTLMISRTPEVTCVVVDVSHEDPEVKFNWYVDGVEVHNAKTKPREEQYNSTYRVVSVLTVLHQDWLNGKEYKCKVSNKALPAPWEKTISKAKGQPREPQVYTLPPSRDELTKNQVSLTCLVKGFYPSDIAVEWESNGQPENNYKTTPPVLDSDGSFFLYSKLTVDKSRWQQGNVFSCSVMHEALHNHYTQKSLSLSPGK
light: B1 light
B20: human IgG1 anti-human CCR4 antibody (KM2160), S239D/I332T (antibody)
heavy: not shown
light: B1 light
B21: human IgG1 anti-human CCR4 antibody (KM2160), S239D/I332F (antibody)
heavy: not shown
light: B1 light
B22: human IgG1 anti-human CCR4 antibody (KM2160), S239E/I332Y (antibody)
heavy: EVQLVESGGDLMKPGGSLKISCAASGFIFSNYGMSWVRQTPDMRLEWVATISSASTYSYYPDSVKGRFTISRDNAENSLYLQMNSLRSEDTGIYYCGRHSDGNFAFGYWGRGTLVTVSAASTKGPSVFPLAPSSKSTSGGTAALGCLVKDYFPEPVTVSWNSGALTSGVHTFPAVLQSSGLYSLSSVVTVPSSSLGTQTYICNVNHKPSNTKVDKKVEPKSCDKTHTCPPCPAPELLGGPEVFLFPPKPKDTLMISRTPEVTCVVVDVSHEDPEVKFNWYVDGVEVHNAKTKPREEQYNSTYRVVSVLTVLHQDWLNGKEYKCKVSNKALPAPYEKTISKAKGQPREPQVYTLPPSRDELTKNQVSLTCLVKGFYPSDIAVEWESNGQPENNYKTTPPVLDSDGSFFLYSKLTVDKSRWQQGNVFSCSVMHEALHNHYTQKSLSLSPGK
light: B1 light
B23: human IgG1 anti-human CCR4 antibody (KM2160), S239D/K326E (antibody)
heavy: not shown
light: B1 light
B24: human IgG1 anti-human CCR4 antibody (KM2160), S239D/L326I (as printed) (antibody)
heavy: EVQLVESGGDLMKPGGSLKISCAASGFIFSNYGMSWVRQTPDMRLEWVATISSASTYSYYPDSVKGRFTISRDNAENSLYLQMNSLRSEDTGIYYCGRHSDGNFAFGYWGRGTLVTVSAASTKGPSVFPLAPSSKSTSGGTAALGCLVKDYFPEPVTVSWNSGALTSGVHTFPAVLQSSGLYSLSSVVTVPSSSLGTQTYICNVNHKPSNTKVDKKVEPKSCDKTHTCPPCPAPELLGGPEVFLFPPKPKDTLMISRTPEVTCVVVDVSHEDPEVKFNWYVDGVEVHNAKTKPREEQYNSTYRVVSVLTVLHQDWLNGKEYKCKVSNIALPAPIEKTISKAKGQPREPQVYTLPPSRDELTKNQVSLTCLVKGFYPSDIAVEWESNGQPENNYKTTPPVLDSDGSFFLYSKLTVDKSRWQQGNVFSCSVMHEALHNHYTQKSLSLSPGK
light: B1 light
B25: human IgG1 anti-human CCR4 antibody (KM2160), S239E/I332F (antibody)
heavy: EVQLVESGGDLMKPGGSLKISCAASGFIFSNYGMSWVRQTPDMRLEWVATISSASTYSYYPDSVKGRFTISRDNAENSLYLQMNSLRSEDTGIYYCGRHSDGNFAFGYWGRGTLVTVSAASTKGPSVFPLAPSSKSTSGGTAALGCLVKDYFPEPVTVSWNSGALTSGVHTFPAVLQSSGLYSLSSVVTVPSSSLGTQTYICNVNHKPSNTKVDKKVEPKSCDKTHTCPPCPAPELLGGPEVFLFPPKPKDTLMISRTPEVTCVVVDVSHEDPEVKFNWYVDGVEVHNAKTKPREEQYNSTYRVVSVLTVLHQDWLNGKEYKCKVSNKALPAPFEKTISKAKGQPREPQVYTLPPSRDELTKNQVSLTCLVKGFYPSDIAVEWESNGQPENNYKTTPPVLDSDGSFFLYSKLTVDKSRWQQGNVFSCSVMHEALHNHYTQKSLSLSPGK
light: B1 light
B26: human IgG1 anti-human CCR4 antibody (KM2160), S239D/I332H (antibody)
heavy: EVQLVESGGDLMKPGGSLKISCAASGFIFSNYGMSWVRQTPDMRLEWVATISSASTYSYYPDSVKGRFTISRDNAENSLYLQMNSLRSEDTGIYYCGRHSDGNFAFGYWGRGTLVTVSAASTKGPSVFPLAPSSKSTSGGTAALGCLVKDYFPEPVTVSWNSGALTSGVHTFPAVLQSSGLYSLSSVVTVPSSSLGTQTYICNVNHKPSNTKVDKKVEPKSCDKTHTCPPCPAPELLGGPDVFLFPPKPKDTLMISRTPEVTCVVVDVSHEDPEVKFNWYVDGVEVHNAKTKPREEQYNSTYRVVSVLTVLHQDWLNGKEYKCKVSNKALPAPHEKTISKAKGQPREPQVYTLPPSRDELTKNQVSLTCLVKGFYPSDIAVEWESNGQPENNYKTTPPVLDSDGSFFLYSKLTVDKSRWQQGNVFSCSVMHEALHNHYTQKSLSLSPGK
light: B1 light
B27: human IgG1 anti-human CCR4 antibody (KM2160), S239D/K326L (antibody)
heavy: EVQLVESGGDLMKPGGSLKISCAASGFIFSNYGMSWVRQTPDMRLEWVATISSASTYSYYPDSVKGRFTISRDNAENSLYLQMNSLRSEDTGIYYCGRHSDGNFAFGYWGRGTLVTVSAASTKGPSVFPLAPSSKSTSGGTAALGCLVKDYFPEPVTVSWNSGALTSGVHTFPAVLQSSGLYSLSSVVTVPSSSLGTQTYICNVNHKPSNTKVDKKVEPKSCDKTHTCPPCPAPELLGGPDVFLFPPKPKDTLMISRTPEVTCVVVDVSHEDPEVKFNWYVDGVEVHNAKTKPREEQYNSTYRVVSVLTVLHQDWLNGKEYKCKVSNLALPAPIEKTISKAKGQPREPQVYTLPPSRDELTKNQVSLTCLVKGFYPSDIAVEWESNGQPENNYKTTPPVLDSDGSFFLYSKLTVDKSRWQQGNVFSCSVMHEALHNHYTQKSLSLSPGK
light: B1 light
B28: human IgG1 anti-human CCR4 antibody (KM2160), S239D/I332D (antibody)
heavy: not shown
light: B1 light
B29: human IgG1 anti-human CCR4 antibody (KM2160), S239D/I332L (antibody)
heavy: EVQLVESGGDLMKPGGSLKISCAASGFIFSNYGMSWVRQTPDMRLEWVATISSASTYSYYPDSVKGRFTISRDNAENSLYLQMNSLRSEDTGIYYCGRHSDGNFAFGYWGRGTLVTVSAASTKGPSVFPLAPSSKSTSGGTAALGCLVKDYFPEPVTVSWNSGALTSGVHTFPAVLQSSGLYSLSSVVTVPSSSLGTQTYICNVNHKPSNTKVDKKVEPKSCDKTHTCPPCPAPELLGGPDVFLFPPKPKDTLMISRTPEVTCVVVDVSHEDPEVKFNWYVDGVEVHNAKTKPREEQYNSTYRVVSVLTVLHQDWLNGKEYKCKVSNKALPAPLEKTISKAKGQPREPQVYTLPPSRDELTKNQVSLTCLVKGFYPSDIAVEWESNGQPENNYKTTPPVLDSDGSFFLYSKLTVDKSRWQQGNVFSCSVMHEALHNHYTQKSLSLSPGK
light: B1 light
B30: human IgG1 anti-human CCR4 antibody (KM2160), S239D/I332Y (antibody)
heavy: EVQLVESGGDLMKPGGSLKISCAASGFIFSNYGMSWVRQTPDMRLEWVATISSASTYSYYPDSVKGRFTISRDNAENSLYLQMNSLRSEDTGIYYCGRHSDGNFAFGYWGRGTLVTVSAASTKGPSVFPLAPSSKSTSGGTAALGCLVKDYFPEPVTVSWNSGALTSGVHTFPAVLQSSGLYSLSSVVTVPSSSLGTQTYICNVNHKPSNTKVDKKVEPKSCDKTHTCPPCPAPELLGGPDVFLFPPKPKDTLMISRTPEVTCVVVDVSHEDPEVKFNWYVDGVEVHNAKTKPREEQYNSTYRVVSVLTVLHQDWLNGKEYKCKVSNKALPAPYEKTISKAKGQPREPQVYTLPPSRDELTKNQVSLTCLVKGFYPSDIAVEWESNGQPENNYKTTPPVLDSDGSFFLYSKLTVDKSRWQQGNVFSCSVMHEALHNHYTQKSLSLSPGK
light: B1 light
B31: human IgG1 anti-human CCR4 antibody (KM2160), S239D/I332A (antibody)
heavy: not shown
light: B1 light

target: T1, human CD16a (Val type) stably expressed on NK-92 cells (NK-92/CD16 transfectant) (human, UniProt P08637 17-254); assay: cell-based or functional assay
T1 sequence (P08637 17-254 F176V): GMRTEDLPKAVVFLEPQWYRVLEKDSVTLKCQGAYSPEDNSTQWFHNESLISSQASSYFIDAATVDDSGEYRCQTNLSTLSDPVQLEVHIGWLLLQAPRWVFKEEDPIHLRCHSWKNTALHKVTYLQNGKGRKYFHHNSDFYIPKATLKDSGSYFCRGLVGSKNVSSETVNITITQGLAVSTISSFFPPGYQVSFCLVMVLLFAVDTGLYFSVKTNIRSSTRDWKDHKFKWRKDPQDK

Binder | relative ADCC activity (AAA = 100)
B1 | 36 relative, AAA at 0.1 µg/mL = 100
B2 | -46 relative, AAA at 0.1 µg/mL = 100
B3 | 4 relative, AAA at 0.1 µg/mL = 100
B4 | 291 relative, AAA at 0.1 µg/mL = 100
B5 | 88 relative, AAA at 0.1 µg/mL = 100
B6 | -89 relative, AAA at 0.1 µg/mL = 100
B7 | -69 relative, AAA at 0.1 µg/mL = 100
B8 | 82 relative, AAA at 0.1 µg/mL = 100
B9 | 79 relative, AAA at 0.1 µg/mL = 100
B10 | 119 relative, AAA at 0.1 µg/mL = 100
B11 | 165 relative, AAA at 0.1 µg/mL = 100
B12 | 94 relative, AAA at 0.1 µg/mL = 100
B13 | 70 relative, AAA at 0.1 µg/mL = 100
B14 | 171 relative, AAA at 0.1 µg/mL = 100
B15 | -97 relative, AAA at 0.1 µg/mL = 100
B16 | 116 relative, AAA at 0.1 µg/mL = 100
B17 | 51 relative, AAA at 0.1 µg/mL = 100
B18 | -28 relative, AAA at 0.1 µg/mL = 100

target: T1, human CD16a (Val type) stably expressed …; assay: cell-based or functional assay; remark: another data set of the same source

Binder | relative ADCC activity (AAA = 100)
B19 | 94 relative, AAA at 0.1 µg/mL = 100
B20 | 72 relative, AAA at 0.1 µg/mL = 100
B21 | 93 relative, AAA at 0.1 µg/mL = 100
B22 | 130 relative, AAA at 0.1 µg/mL = 100
B23 | 147 relative, AAA at 0.1 µg/mL = 100
B24 | 146 relative, AAA at 0.1 µg/mL = 100
B25 | 34 relative, AAA at 0.1 µg/mL = 100
B26 | 84 relative, AAA at 0.1 µg/mL = 100
B27 | 113 relative, AAA at 0.1 µg/mL = 100
B28 | 150 relative, AAA at 0.1 µg/mL = 100
B29 | 82 relative, AAA at 0.1 µg/mL = 100
B30 | 123 relative, AAA at 0.1 µg/mL = 100
B31 | 94 relative, AAA at 0.1 µg/mL = 100
